# In patent US20190083645A1 (AbbVie / Abbott, published 2019):
# Residue numbers refer to the chain shown, from its start.
# T1: human CLDN4 (human, UniProt O14493 1-209)
# T1 sequence (looked up): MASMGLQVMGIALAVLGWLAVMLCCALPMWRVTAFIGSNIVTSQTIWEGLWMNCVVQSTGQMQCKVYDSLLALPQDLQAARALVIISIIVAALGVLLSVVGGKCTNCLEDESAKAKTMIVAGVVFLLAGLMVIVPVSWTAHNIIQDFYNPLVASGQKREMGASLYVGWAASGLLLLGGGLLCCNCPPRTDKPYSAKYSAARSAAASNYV
# T2: human CLDN6 (human, UniProt P56747 1-220)
# T2 sequence: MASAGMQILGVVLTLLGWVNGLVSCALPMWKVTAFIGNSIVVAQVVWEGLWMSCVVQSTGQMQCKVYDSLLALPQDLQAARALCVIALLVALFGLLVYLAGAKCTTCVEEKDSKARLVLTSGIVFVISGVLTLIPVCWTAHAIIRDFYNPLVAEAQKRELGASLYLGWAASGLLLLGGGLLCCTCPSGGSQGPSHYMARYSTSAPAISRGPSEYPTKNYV
# T3: human CLDN9 (human, UniProt O95484 1-217)
# T3 sequence: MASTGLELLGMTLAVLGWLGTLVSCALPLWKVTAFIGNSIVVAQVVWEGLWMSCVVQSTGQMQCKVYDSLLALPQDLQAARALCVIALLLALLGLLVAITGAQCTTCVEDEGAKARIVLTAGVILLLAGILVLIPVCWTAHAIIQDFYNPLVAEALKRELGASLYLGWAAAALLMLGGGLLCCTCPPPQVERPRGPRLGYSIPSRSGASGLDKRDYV
# B1: SC27.105 (antibody, V domains shown)
# VH: EVQLQQSGPELVKPGASVKISCKASGYSFTGYYMNWVKQSPEKSLEWIGEINPSTGSTTYNQKFKAKATLTVDKSSSTAYMQLKSLTSEDSAVYYCARRDYYYGSGFYAMDYWGQGTSVTVSS
# VL: DVQMTQSPSSLSASLGERVSLTCQASQSVSNNLNWYQQTPGKAPRLLIYGASKLEDGVSSRFSGTGYGTDFTFTISSLEEEDVATYFCLQHRYLWTFGGGTKLEIK
# B2: SC27.204 (antibody, V domains shown)
# VH: EVKVLESGGGLVQPGGSLKLSCAASGFDFSRYWMSWVRQAPGKGLEWIGEINPDSSTINYTPSLKAKFIISRDNAKNTLYLQMSKVRSEDTALYYCTGPAYWGQGTLVTVSA
# VL: DIVMTQSQKFMSTSVGDRVSVACKAGQNVGTSVAWYQQKPGHSPKSLIYSASYRYSGVPNRFTGSGSGTDFTLTISNVQSEDLADYFCQQYITYPYTFGGGTKLEII
# B3: SC27.108 (antibody, V domains shown)
# VH: QVQMQQSGAELVRPGTSVKVSCKASGYAFTNYLIEWVKQRPGQGLEWIGLINPGSGGTNYNEKFKGKATLTADKSSTTAYMQLSSLTSDDSAVYFCARRSPLGSWIYYAYDGVAYWGQGTLVTVSA
# VL: EIVLTQSPALMAASPGEKVTITCSVSSSISSSNLHWYQQKSGTSPKLWIYGTSNLASGVPVRFSGSGSGTSYSLTISNMEAEDAATYYCQQWSSYPHTFGGGTKLEIK
# B4: SC27.201 (antibody, V domains shown)
# VL: DIQMTQSSSSFSVSLGDRVTITCKASEDIYNRLAWYQQKPGNAPRLLISGATSLEAGVPSGFSGSGSGKDYTLSITSLQTEDVATYYCQQYWSTPPTFGGGTKLELK
# V domain: EVQLQQSGPELVKPGASVKISCKTSGYTFTENIRHWVKQSRGKSLEWIGTINPNNGETRYNQKFKGKATLTVDKSSSTAYMELRSLTSEDSAVYYCTRGITKSPYGMDYWGQGTSITVSS
# B5: SC27.104 (antibody, V domains shown)
# VH: EVQLQQSGPELVKPGASVKISCKTSGYTFTEYTVHWVKQSHGKSLEWIGGVYPKNGDTTYNQKFRGKATLTVDKSSNTAYMELRSLTSEDSAVYYCTGKDGYDGFAYWGQGTLVTVSA
# VL: B4 VL with A56T, G61R, T94N, L106I
# B6: SC27.103 (antibody, V domains shown)
# VH: EVHLQQSGPELVKPGGSMKISCKASGYSFTGYTMNWVKQSHGKNLEWIGLFNPYNGGTSYNQKFKGKATLTVDKSSSTAYMELLSLTSEDSAVYYCARCYRYDGLDYWGQGTTLTVSS
# VL: QIVLTQSPAIMSASLGERVTMTCTASSSVSSSYLHWYQQKPGSSPTLWIYRTSDLASGVPARFSGSGSGTSYSLTISSMEAEDAATYYCHQYHRSPWTFGGGTRLEIK
# Molecular target: T1, human CLDN4
# Assay: cell-based or functional assay
row,Binder,"apparent IC50, killing of HEK293T cells overexpressing hCLDN4 with anti-mouse Fab-saporin, CellTiter-Glo [nM]"
1,B1,> 2000
2,B2,> 2000
3,B3,> 2000
4,B4,69.7
5,B5,969
6,B6,> 2000

# Molecular target: T2, human CLDN6
# Assay: cell-based or functional assay
row,Binder,"apparent IC50, killing of HEK293T cells overexpressing hCLDN6 with anti-mouse Fab-saporin, CellTiter-Glo [nM]"
1,B1,235
2,B2,25.2
3,B3,102
4,B4,48.2
5,B5,284
6,B6,57.7

# Molecular target: T3, human CLDN9
# Assay: cell-based or functional assay
row,Binder,"apparent IC50, killing of HEK293T cells overexpressing hCLDN9 with anti-mouse Fab-saporin, CellTiter-Glo [nM]"
1,B1,> 2000
2,B2,16.9
3,B3,> 2000
4,B4,155
5,B5,> 2000
6,B6,466
